Data from patent US20190177416A1 (NANOMAB TECHNOLOGY, published 2019).

T1: PD-L2 (coated antigenic protein) (UniProt Q9BQ51 20-220, limits assumed)
T1 sequence (looked up): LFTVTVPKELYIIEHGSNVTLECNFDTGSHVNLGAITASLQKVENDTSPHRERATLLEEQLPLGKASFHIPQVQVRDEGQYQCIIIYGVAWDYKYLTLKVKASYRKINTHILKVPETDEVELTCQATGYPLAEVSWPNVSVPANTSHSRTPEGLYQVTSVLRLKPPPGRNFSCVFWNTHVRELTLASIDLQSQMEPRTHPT


Assays:
[1] = target: T2, human PD-L1 protein (coated antigen) (human, UniProt Q9NZQ7 19-238, limits assumed); experiment: PE-ELISA on coated PD-L1
T2 construct: Construct not described; also called PD-L1 antigen; antigenic protein PD-L1

[2] = target: T1, PD-L2 (coated antigenic protein); experiment: ELISA, purified nanobody 10 ug/mL on coated PD-L2, anti-HA detection
Procedure: (§1) (1) Coated antigenic proteins PD-L1 and PD-L2: 0.5 μg per well (5 μg/mL, 100 μL), packaged NaHCO₃ (100 mM, pH8.2) was used as a blank control and overnight at 4° C. (2) Wash the cells three times with PBST the next day, add 200 μL of 1% BSA to block at room temperature for 2 hours. (3) Each purified nanobody was diluted to 10 μg/mL, and 100 pt of each of the purified nanobodies was incubated with the coated PD-L1, PD-L2 and the blank control group, and reacted at room temperature for 1 hour. (4) Unbound antibody was washed away with PBST, and 100 μL of mouse anti-HA tag antibody (1:2000 dilution) was added and placed at room temperature for 1 hour. (5) Unbound antibody was washed away with PBST, and anti-mouse alkaline phosphatase conjugate (1:2000 dilution) was added and placed at room temperature for 1 hour. (6) Wash the unbound antibody with PBST, add alkaline phosphatase coloring solution, and read the absorbance at 405 nm on an ELISA apparatus. The specificity of the nanobody was judged based on the absorption value.

[3] = target: T2, human PD-L1 protein (coated antigen); experiment: ELISA, purified nanobody 10 ug/mL on coated PD-L1, anti-HA detection
Procedure: as §1

[4] = target: T2, human PD-L1 protein (coated antigen); experiment: PE-ELISA, crude extract on coated PD-L1
How it was run: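 Phage clones were expressed with 1 mmol IPTG at 28° C overnight, and crude periplasmic antibody was applied to PD-L1-coated plates for 1 h at room temperature. Detection used anti-HA, then an alkaline phosphatase conjugate, read at 405 nm. A sample/control OD ratio above 3 marked a positive clone.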

[5] = target: T2, human PD-L1 protein (coated antigen); experiment: ELISA, purified nanobody 10 ug/mL, coated PD-L1 against coated PD-L2
Procedure: as §1

T2 sequence (Q9NZQ7 19-238 limits assumed): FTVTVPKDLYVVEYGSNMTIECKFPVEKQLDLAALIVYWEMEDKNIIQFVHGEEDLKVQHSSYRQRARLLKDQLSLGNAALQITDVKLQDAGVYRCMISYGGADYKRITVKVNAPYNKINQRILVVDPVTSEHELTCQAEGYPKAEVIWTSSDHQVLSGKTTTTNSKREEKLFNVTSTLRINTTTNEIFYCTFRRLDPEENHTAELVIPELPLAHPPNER

| binding result [1] | ELISA absorbance (A405 nm) [2] | ELISA absorbance (A405 nm) [3] | OD ratio (experimental group (A405 nm)/control group (A405 nm)) [4] | OD ratio (PD-L1/PD-L2) [5] | Binder |
| --- | --- | --- | --- | --- | --- |
| binds | – | – | – | – | SEQ ID NO 139 (VHH, pMECS-expressed; also called VHH numbered 139) VHH: QVQLQESGGGSVQAGGSLRLSCVASGYTNCRYDMSWYRQAPGKEREFVSSIDSEGVARHADSVKGRFGISQDNAKSTLYLQMNSLKPEDTAVYYCKTDYITCRFGSWSDSTWGQGTQVTVSS |
| binds | – | – | – | – | SEQ ID NO 140 (VHH, pMECS-expressed; also called VHH numbered 140) VHH: QVQLQESGGGSVQAGGSLRLSCVASGYTNCRYDMSWYRQAPGKEREFVSSIDSEGVARHADSVKGRFGISQDNAKSTLYLQMNSLKPEDTAMYYCKMDYIRCRFGSWSESTWGQGTQVTVSS |
| – | 0.133 A405 nm | 3.37 A405 nm | > 20 | 25.3 | SEQ ID NO 8 (VHH, pMECS-expressed; also called anti-PD-L1 nanobody No. 8; VHH numbered 8) VHH: QVQLQESGGDSVQAGGSLRLACKVPGFTSNTCAMAWFRQAPGKEREFVSSISTGGTTGYAESAKGRFTLSKDEAKDTVYLQMNSLKPEDTAMYFCKSYACRTCIGRYCRTAPDAWGQGTQVTVSS |
| – | 0.114 A405 nm | 3.63 A405 nm | > 20 | 31.8 | SEQ ID NO 2 (VHH, pMECS-expressed; also called anti-PD-L1 nanobody No. 2; VHH numbered 2) VHH: QVQLQESGGGSVQAGGSLRLSCAVSRYSASNNVIKWMGWFRQAPGKEREGVAALYTSGGNTYYADSVKGRFTISRDYSENTVSLQMNNLKPEDTGMYYCATTVGTVLAGPLSARKYNYWGQGTQVTVSS |
| binds | – | – | – | – | SEQ ID NO 142 (VHH, pMECS-expressed; also called VHH numbered 142) VHH: QVQLQESGGGSVQTGGSLRLSCAVSRYSASNNVIKWMGWFRQAPGKEREGVAALYTSGGNTYYADSVKGRFTISRDYSENTVSLQMNNLKPEDTGMYYCAATVGTVLAGPLSARKYNYWGQGTQVTVSS |
| – | 0.131 A405 nm | 3.56 A405 nm | > 20 | 27.2 | SEQ ID NO 9 (VHH, pMECS-expressed; also called anti-PD-L1 nanobody No. 9; VHH numbered 9) VHH: QVQLQESGGGSVQAGGSLRLSCAASGYTYSNDGMGWFRQIPGKEREGVAAISPTGRRTEYADSVQGRFTISRDNAKNMLSLQMNSLKPEDTGMYYCAREGSGSFSLQNSAVRSWGQGTQVTVSS |
| – | 0.112 A405 nm | 2.36 A405 nm | > 20 | 21 | SEQ ID NO 3 (VHH, pMECS-expressed; also called anti-PD-L1 nanobody No. 3; VHH numbered 3) VHH: QVQLQESGGGSVQTGGSLRLSCAASTSLYSYNYMAWFSQAPGKGREGVAAVYVGDGRPYYADSVKGRFTISLDSAKNAVYLQMNSLKPEDTAMYYCAAAPGPLSHNYWYTSANYDYWGQGTQVTVSS |
| – | 0.128 A405 nm | 3.38 A405 nm | > 20 | 26.4 | SEQ ID NO 5 (VHH, pMECS-expressed; also called anti-PD-L1 nanobody No. 5; VHH numbered 5) VHH: QVQLQESGGGSVQTGGSLRLSCAASTSIYSNNYMAWFSQAPGKGREGVAAVYIDDGRPYYADSVKGRFTISLDSAKNTVYLQMNGLKPEDTAMYYCAAAPGPLSRNYWYTSANYDYWGQGTQVTVSS |
| – | 0.119 A405 nm | 3.51 A405 nm | > 20 | 29.5 | SEQ ID NO 7 (VHH, pMECS-expressed; also called anti-PD-L1 nanobody No. 7; VHH numbered 7) VHH: QVQLQESGGGSVQTGGSLRLSCACSTSIYSTNYMAWFSQAPGKGREGVAAVYIGDGRPYYADSVKGRFTISLDSAKNTVYLQMNSLKPEDTAMYYCAAAPGPLSRNYWYTSANYDYWGQGTQVTVSS |
| – | 0.137 A405 nm | 3.51 A405 nm | > 20 | 25.6 | SEQ ID NO 4 (VHH, pMECS-expressed; also called anti-PD-L1 nanobody No. 4; VHH numbered 4) VHH: QVQLQESGGGSVQTGGSLRLSCAASPSIYSANYMAWFSQAPGKGREGVAAVYIGDGRPYYADSVKGRFTISLDSAKNTVYLQMNSLKPEDTAMYYCAAAPGPLGHNYWYTSANYDYWGQGTQVTVSS |
| binds | – | – | – | – | SEQ ID NO 149 (VHH, pMECS-expressed; also called VHH numbered 149) VHH: QVQLQESGGGLVQAGGSLRLSCTASGFTFDDYSMGWFRQAPGKEREGISCIDWSGGRTNYGDSVKGRFTISRDNAKNTLYLQMNSLKPEDTAMYYCAANSAYSSCSLSTTHYKYWGQGTQVTVSS |
| – | 0.125 A405 nm | 2.99 A405 nm | > 20 | 23.9 | SEQ ID NO 12 (VHH, pMECS-expressed; also called anti-PD-L1 nanobody No. 12; VHH numbered 12) VHH: QVQLQESGGGSVQAGGSLRLSCAASGYTRSSHCMVWFRQAPGKEREGVALIYTGSGSTYYADSVKGRFTISQDNAKKTLYLQMNSLKPEDTAMYYCAAGTSSSSCPGLLGPPRYYNWGQGTQVTVSS |
| binds | – | – | – | – | SEQ ID NO 150 (VHH, pMECS-expressed; also called VHH numbered 150) VHH: QVQLQESGGGLVQPGGSLRLSCAASGFTFSAYGMSWVRQAPGKGFEWVSTINSGGGTTFYADSVKGRFTISRDNAKNTLYLQLNSLRTEDTAMYYCRRCADIYCSLSGGWTGQGTQVTVSS |
| binds | – | – | – | – | SEQ ID NO 148 (VHH, pMECS-expressed; also called VHH numbered 148) VHH: QVQLQESGGGSVQAGGSLRLSCAASGYSYNIDYMAWFRQAPGKEREGVAAIYTGSRRTYYSDSVKGRFAISQDNADNTVYLQMNALKPEDTAMYFCAALVSRPGRSWDKNEYRYWGQGTQVTVSS |
| binds | – | – | – | – | SEQ ID NO 141 (VHH, pMECS-expressed; also called VHH numbered 141) VHH: QVQLQESGGGSVQAGGSLRLSCTAPGFTSNTCAMAWFRQAPGKEREFVSSMSTVGSTRFADSVKGRFTISKDEAKDTVYLQMNSLKPEDTAMYFCKTYACRECTGRYCRTAPDAWGQGTQVTVSS |
| binds | – | – | – | – | SEQ ID NO 143 (VHH, pMECS-expressed; also called VHH numbered 143) VHH: QVQLQESGGGSVQAGGSLRLSCTAPGFTSNTCAMAWYRQAPGKEREFVSSISTVRTTAYADSVKGRFTISKDEAKATVYLQMNSLKPEDTAMYFCKSYACRDCIGRYCRTAPDAWGQGTQVTVSS |
| – | 0.117 A405 nm | 3.34 A405 nm | > 20 | 28.6 | SEQ ID NO 10 (VHH, pMECS-expressed; also called anti-PD-L1 nanobody No. 10; VHH numbered 10) VHH: QVQLQESGGGSVQAGGSLRLSCTAPGFTSKTCAMRWYRQAPGKEREFVSAISTVGTTTYADSVKGRFIISKDEAKDTVYLQINSLKPEDTAMYSCKTFACRHCIGQSCRTEPDYWGQGTQVTVSS |
| binds | – | – | – | – | SEQ ID NO 147 (VHH, pMECS-expressed; also called VHH numbered 147) VHH: QVQLQESGGGSVQAGGSLRLSCAASGYTSRPNFMVWFRQAPGKEREAVAGIYTVTGGTLYSDPVKGRFTISQDKAKNTVYLQMNSLNPEDTAMYYCAVKWYGGSWSDAATFRTWGRGTQVTVSS |
| binds | – | – | – | – | SEQ ID NO 144 (VHH, pMECS-expressed; also called VHH numbered 144) VHH: QVQLQESGGGSVQAGQSLRLSCTASGYTDSRYCMGWFRQAPGKERERVTTIHTGTGITYYADSVKGRFSISQDNAQNTMYLQMNSLEPEDTAMYYCATTDYVYSASASWCNGYGVFNNWGQGTQVTVSS |
| – | 0.115 A405 nm | 3.44 A405 nm | > 20 | 29.9 | SEQ ID NO 6 (VHH, pMECS-expressed; also called anti-PD-L1 nanobody No. 6; VHH numbered 6) VHH: QVQLQESGGGSVQAGETLRLSCTASGDTFDASGVGWFRQVSGNECDLVSSINRDGTTYYAPSVAGRFTMSQNNAKNTVYLQMNSLKPDDTAVYYCATDPAVGIVVRSTCRGPFGYWGQGTQVTVSS |
| – | 0.116 A405 nm | 2.9 A405 nm | > 20 | 25 | SEQ ID NO 11 (VHH, pMECS-expressed; also called anti-PD-L1 nanobody No. 11; VHH numbered 11) VHH: QVQLQESGGGSVQAGETLRLSCTASGDTFDDSGVGWFRQVSGNECDLVSSINRDGTTYYAPSVAGRFTISQNNAKNTVYLQMNSLKPDDTAVYYCATVPAVGIVVRITCRGPFGYWGQGTQVTVSS |
